The target of assay [1] is T1, rhodamine-labeled Mdm2^216–302 (human, UniProt Q00987-11 216-302, rhodamine label (site not stated)). Briefly: FP.
Assay [2] deals with T1, rhodamine-labeled Mdm2^216–302. In words: FP. This is another data set of the same source.
For assay [3] the target is unchanged. In words: FP; GPpY peptide preassembled with PTBi.
Assay [4] has the same target. Briefly: FP. The source holds these as a separate data set.

T1 sequence (Q00987 210-296): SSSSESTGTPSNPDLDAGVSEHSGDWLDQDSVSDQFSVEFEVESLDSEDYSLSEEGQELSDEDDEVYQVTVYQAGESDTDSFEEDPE

B1: Numb-PTBo, purified (domain or fragment)
chain: SRPHQWQTDEEGVRTGKCSFPVKYLGHVEVDESRGMHICEDAVKRLKATGKKAVKAVLWVSADGLRVVDEKTKDLIVDQTIEKVSFCAPDRNFDRAFSYICRDGTTRRWICHCFMAVKDTGERLSHAVGCAFAACLERKQKREKE
Broadly, the Kd is the constant that tells how readily two partners part at equilibrium. Read a low Kd as higher affinity. In turn, B1 displayed a Kd in assay [1] of 155 µM.

B2: PTBi F75-76A (protein)
chain: SRPHQWQTDEEGVRTGKCSFPVKYLGHVEVDESRGMHICEDAVKRLKAERKFFKGAAGKTGKKAVKAVLWVSADGLRVVDEKTKDLIVDQTIEKVSFCAPDRNFDRAFSYICRDGTTRRWICHCFMAVKDTGERLSHAVGCAFAACLERKQKREKE
B2 yielded a Kd in assay [2] of 43.5 µM.

B3: PTBi in complex with GPpY (complex)
chain 1: SRPHQWQTDEEGVRTGKCSFPVKYLGHVEVDESRGMHICEDAVKRLKAERKFFKGFFGKTGKKAVKAVLWVSADGLRVVDEKTKDLIVDQTIEKVSFCAPDRNFDRAFSYICRDGTTRRWICHCFMAVKDTGERLSHAVGCAFAACLERKQKREKE
chain 2: AYIGPYL
modifications: phosphotyrosine at position 6 (AYIGPpYL)
B3 registered a Kd in assay [3] of 5.8 µM.

B4: PTBi F71-72-75-76A (protein)
chain: SRPHQWQTDEEGVRTGKCSFPVKYLGHVEVDESRGMHICEDAVKRLKAERKAAKGAAGKTGKKAVKAVLWVSADGLRVVDEKTKDLIVDQTIEKVSFCAPDRNFDRAFSYICRDGTTRRWICHCFMAVKDTGERLSHAVGCAFAACLERKQKREKE
B4 yielded a Kd in assay [2] of 60.6 µM. That is a double-digit micromolar value.

B5: PTBi F71-72A (protein)
chain: SRPHQWQTDEEGVRTGKCSFPVKYLGHVEVDESRGMHICEDAVKRLKAERKAAKGFFGKTGKKAVKAVLWVSADGLRVVDEKTKDLIVDQTIEKVSFCAPDRNFDRAFSYICRDGTTRRWICHCFMAVKDTGERLSHAVGCAFAACLERKQKREKE
Take B5: the Kd in assay [2] was determined as 29 µM.

B6: Numb-PTBi (Numb^20–175), purified (domain or fragment)
chain: SRPHQWQTDEEGVRTGKCSFPVKYLGHVEVDESRGMHICEDAVKRLKAERKFFKGFFGKTGKKAVKAVLWVSADGLRVVDEKTKDLIVDQTIEKVSFCAPDRNFDRAFSYICRDGTTRRWICHCFMAVKDTGERLSHAVGCAFAACLERKQKREKE
In the case of B6, the Kd in assay [1] turned out to be 5.5 µM; in assay [4], 6.1 µM.

KRLKAERKFFKGFFGKTGKK (other) [thioredoxin-scaffolded Numb^63–82, His fusion] had a Kd in assay [4] of 86 µM.

B7: Numb isoform-1 full-length, purified (natural protein)
chain: MNKLRQSFRRKKDVYVPEASRPHQWQTDEEGVRTGKCSFPVKYLGHVEVDESRGMHICEDAVKRLKAERKFFKGFFGKTGKKAVKAVLWVSADGLRVVDEKTKDLIVDQTIEKVSFCAPDRNFDRAFSYICRDGTTRRWICHCFMAVKDTGERLSHAVGCAFAACLERKQKREKECGVTATFDASRTTFTREGSFRVTTATEQAEREEIMKQMQDAKKAETDKIVVGSSVAPGNTAPSPSSPTSPTSDATTSLEMNNPHAIPRRHAPIEQLARQGSFRGFPALSQKMSPFKRQLSLRINELPSTMQRKTDFPIKNAVPEVEGEAESISSLCSQITNAFSTPEDPFSSAPMTKPVTVVAPQSPTFQANGTDSAFHVLAKPAHTALAPVAMPVRETNPWAHAPDAANKEIAATCSGTEWGQSSGAASPGLFQAGHRRTPSEADRWLEEVSKSVRAQQPQASAAPLQPVLQPPPPTAISQPASPFQGNAFLTSQPVPVGVVPALQPAFVPAQSYPVANGMPYPAPNVPVVGITPSQMVANVFGTAGHPQAAHPHQSPSLVRQQTFPHYEASSATTSPFFKPPAQHLNGSAAFNGVDDGRLASADRHTEVPTGTCPVDPFEAQWAALENKSKQRTNPSPTNPFSSDLQKTFEIEL
B7: the Kd in assay [1] came to 5.6 µM.

In assay [4], GMHICEDAVKRLKAERKFFKGFFGKTGKKAVKAVLWVS (other) [thioredoxin-scaffolded Numb^54–91, His fusion] had a Kd of 5.1 µM.

For the origin of these results see article PMC5800818 (2018).
